Reference: PMC4995489, “Staphylokinase has distinct modes of interaction with antimicrobial peptides, modulating its plasminogen-activation properties” (Scientific Reports, 2016)
Substitutions are numbered along the chain they refer to. “Also recorded” adds a separate entry of the source. Bridges are numbered along the chain shown (N, C = ends). Where no end group is shown, it is not given here.

Assays:
[1] = molecular target: T1, staphylokinase (Sak, full-length, sakSTAR sequence, C-terminal His6-tag) (Staphylococcus aureus, UniProt Q99SU7); experiment: ITC of antimicrobial peptide binding to full-length staphylokinase; conditions: 25 °C, 200–400 μM peptide titrated into 8 μM Sak, 20 mM HEPES pH 7.4, One Set of Sites model, at least two experiments
T1 construct: Staphylokinase contains 136 amino acids and has a molecular weight of 15.5 kDa; made in house; host or cells: E. coli BL21 (DE3), pET29b, synthetic gene from GeneArt
T1 sequence (Q99SU7 28-163): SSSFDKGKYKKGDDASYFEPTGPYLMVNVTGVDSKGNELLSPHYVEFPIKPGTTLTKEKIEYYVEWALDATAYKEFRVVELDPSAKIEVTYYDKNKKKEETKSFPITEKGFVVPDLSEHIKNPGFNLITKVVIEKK
Procedure: (§1) Most peptides were purchased from Genscript (Piscataway, NJ) as custom-synthesized peptides synthesized using standard 9-fluorenylmethyoxycarbonyl (Fmoc) chemistry and they were purified by HPLC to >95% purity. […] The concentrations for most of the peptides were determined by UV absorption at 280 nm using molar extinction coefficients determined by ProtParam[54].
(§2) A synthetic gene for staphylokinase with optimized codons for expression in Escherichia coli was purchased from GeneArt (Life Technologies). Staphylokinase genes have been cloned and sequenced from different origins: the bacteriophages sakφC and sak42D, and the genomic DNA of a lysogenic S. aureus strain (sakSTAR)[56]. These indicate amino acid sequence differences at three positions in the coding sequences. In this study, we have worked with the sakSTAR protein sequence as it is the most commonly used variant. The gene was subcloned into a pET29b (Novagen), giving the expressed protein a C-terminal His6-tag when expressed in E. coli BL21 (DE3) cells.
(§3) All ITC runs were performed at 25 °C on a MicroCal VP-ITC microcalorimeter (Malvern, Westborough, MA). 200–400 μM peptide was titrated into 8 μM SakΔN10 or Sak in 20 mM HEPES, pH 7.4. […] Data analysis was performed using the MicroCal Origin software using the “One Set of Sites” binding model. At least two experiments were performed for each titration. Statistical analysis was performed to confirm the statistical validity of the differences in the KD values determined for LfcinB and Tritrp binding to SakΔN10 or Sak. p-values were calculated from Student’s t-tests at the 95% confidence level with a one-tailed hypothesis.

[2] = molecular target: T2, SakΔN10 (staphylokinase with its first ten residues deleted, C-terminal His6-tag) (Staphylococcus aureus, UniProt Q99SU7); experiment: ITC of antimicrobial peptide binding to SakΔN10; conditions: 25 °C; for Kd / KD: 200–400 μM peptide titrated into 8 μM SakΔN10, 20 mM HEPES pH 7.4, One Set of Sites model, at least two experiments
T2 construct: Staphylokinase contains 136 amino acids and has a molecular weight of 15.5 kDa; made in house; host or cells: E. coli BL21 (DE3), pET29b
T2 sequence (Q99SU7 38-163): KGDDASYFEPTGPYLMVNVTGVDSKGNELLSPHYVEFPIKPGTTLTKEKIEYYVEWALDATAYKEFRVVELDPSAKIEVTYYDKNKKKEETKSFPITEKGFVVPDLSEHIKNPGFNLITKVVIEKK
Procedure: as §1, §2, §3

[3] = system: Sak-dependent plasminogen activation; conditions: mCRAMP expression upregulated during staphylococcal pneumonia, intranasal infection mouse model; cited from earlier work
Description: In the present study, our aim was to evaluate staphylokinase as a more general interacting partner for antimicrobial peptides of different structures and origin. […] It is possible that additional factors may be involved in promoting its binding in vivo.

[4] = molecular target: T3, SakΔN10 (staphylokinase with its first ten residues deleted) (Staphylococcus aureus, UniProt P68802 38-163); experiment: ITC; 200-400 μM peptide titrated into 8 μM Sak or SakΔN10 in the cell; 25 °C; 20 mM HEPES, pH 7.4, no salt; One Set of Sites model; at least two experiments each; conditions: both partners purified
T3 construct: not shown: His6, C-terminal, kept
T3 sequence: T2 sequence (Q99SU7 38-163) with S24G

[5] = molecular target: T4, Staphylokinase (full-length Sak, sakSTAR sequence) (Staphylococcus aureus, UniProt P68802 28-163); experiment: as above; conditions: both partners purified
T4 construct: also called wtSak; full Sak; not shown: His6, C-terminal, kept
T4 sequence: T1 sequence (Q99SU7 28-163) with S34G

[6] = molecular target: T4, Staphylokinase (full-length Sak, …); experiment: as above; conditions: both partners purified; remark: listed apart in the source
[7] = molecular target: T3, SakΔN10 (staphylokinase with its first …); experiment: as above; conditions: both partners purified; remark: listed apart in the source
[8] = molecular target: T4, Staphylokinase (full-length Sak, …); experiment: ITC + NMR titration; ITC of mCRAMP into full-length Sak repeated at 37 °C, together with the NMR titration data; not shown; conditions: both partners purified

CC[C@H](C)[C@@H]1NC(=O)[C@H](CO)NC(=O)[C@@H]2CCCN2C(=O)[C@H](C)NC(=O)CNC(=O)[C@H](CC(C)C)NC(=O)[C@H](CCCCN)NC(=O)[C@H](CCCCN)NC(=O)[C@H](CCSC)NC(=O)[C@H](CCCNC(=N)N)NC(=O)[C@H](Cc2c[nH]c3ccccc23)NC(=O)[C@H](CCC(N)=O)NC(=O)[C@H](Cc2c[nH]c3ccccc23)NC(=O)[C@H](CCCNC(=N)N)NC(=O)[C@H](CCCNC(=N)N)NC(=O)[C@@H](NC(=O)[C@H](CCCCN)NC(=O)[C@@H](N)Cc2ccccc2)CSSC[C@@H](C(=O)N[C@H](C(=O)N[C@@H](CCCNC(=N)N)C(=O)N[C@@H](CCCNC(=N)N)C(=O)N[C@@H](C)C(=O)N[C@@H](Cc2ccccc2)C(=O)O)C(C)C)NC(=O)[C@H]([C@@H](C)O)NC1=O [LfcinB]
Kd [1]: 27.3 µM | Kd [2]: 0.37 µM

CC(C)C[C@H](NC(=O)[C@H](Cc1ccccc1)NC(=O)[C@@H]1CCCN1C(=O)[C@H](Cc1c[nH]c2ccccc12)NC(=O)[C@H](Cc1c[nH]c2ccccc12)NC(=O)[C@H](Cc1c[nH]c2ccccc12)NC(=O)[C@@H]1CCCN1C(=O)[C@H](Cc1ccccc1)NC(=O)[C@H](CCCNC(=N)N)NC(=O)[C@H](CCCNC(=N)N)NC(=O)[C@@H](N)C(C)C)C(=O)N[C@@H](CCCNC(=N)N)C(=O)N[C@@H](CCCNC(=N)N)C(N)=O [Tritrp]
Kd [1]: 11.2 µM | Kd [2]: 2.42 µM

GLLRKGGEKIGEKLKKIGQKIKNFFQKLVPQPEQ [mCRAMP, mouse cathelicidin-related antimicrobial peptide, α-helical]
KD [1]: no binding; also recorded: no interaction | augmentation of Sak-dependent plasminogen activation [3]: two-fold | KD [2]: weak interaction

melittin
KD [1]: weak interaction | N (stoichiometry) ([2]; 200–400 μM peptide into 8 μM SakΔN10, 20 mM HEPES pH 7.4, One Set of Sites model): ~1 | KD [2]: weak interaction

B1: Bovine lactoferricin (peptide)
peptide: FKCRRWQWRMKKLGAPSITCVRRAF
modifications: disulfide 3-20
notes: Lactoferricin B, the peptide derived by intestinal proteolysis of bovine lactoferrin; also called LfcinB
Kd [4]: 0.37 µM | dH [4]: -30.1 kcal/mol | stoichiometry N [4]: 0.99 | Kd [5]: 27.3 µM | dH [5]: -4.68 kcal/mol | stoichiometry N [5]: 0.98 | Kd [6]: 27.2 µM

B2: Mouse cathelicidin-related antimicrobial peptide (peptide)
peptide: GLLRKGGEKIGEKLKKIGQKIKNFFQKLVPQPEQ
notes: Cathelicidin-related antimicrobial peptide (CRAMP), the C-terminal peptide of the mouse cathelicidin precursor; also called mCRAMP
stoichiometry N [7]: ~1 | Kd [8]: ≥ 100 µM

B3: Tritrp (C-terminally amidated tritrpticin) (peptide)
peptide: VRRFPWWWPFLRR-NH2
notes: Tritrpticin, a cathelicidin derived from porcine neutrophils; the amidated version was used
Kd [4]: 2.42 µM | dH [4]: -7.01 kcal/mol | stoichiometry N [4]: 1.14 | Kd [5]: 11.2 µM | dH [5]: -3.02 kcal/mol | stoichiometry N [5]: 1.16
